A short description of the data set: yeast display, Sf9 membrane polyspecificity reagent, FACS + sequencing; frameworks hold sequencing errors. The gist of the method:
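A nanobody's polyreactivity label depends on the gate it was sorted from. Yeast display cells were stained with 10% biotinylated, detergent-solubilized Sf9 membrane reagent for 1 hour at 4 °C, enriched on streptavidin microbeads and sorted by FACS. The low and high (top ~1%) gates were set on anti-HA fluorescence for expression and streptavidin fluorescence for reagent binding.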
Take “QVQLVESGGGLVQAGGSLRLSCAASGRIFSRYALGWYRQAPGQERELDAAINKSGGSTYYADSVKGRFTISRDNAKNTVYFQMKSMKAEDTAVYYCTAVYYWYKGDYWGQGTQVTVSS”: the “polyreactivity (PSR sort gate)” value is on record as “high polyreactivity”.

Take “QVQLVESGGGLVQAGGSLRLSCAASGRIFSRYAMGWYRQAPGKERELVAAINKSGGSTYYADSVKGRFTISRDNAKNTVYLQMNSLKPEDTAVYYCAAALGRRRTGYDYWGQGTQGTVSS”: the “polyreactivity (PSR sort gate)” value is reported as “high polyreactivity”.

Take “QVQLVESGGGLVQAGGSLRLSCAASGRIFSRYAMGWYRQAPGKERELVAAIRWSGGRTYYADSVKGRFTISRDNAKNTVYLQMNSLKPEDTAVYYCAKYRYTVAGYNYWGQGTQVTVSS”: the “polyreactivity (PSR sort gate)” value was “high polyreactivity”.

Consider “QVQLVESGGGLVQAGGSLRLSCAASGRIFSRYAMGWYRQAPGKERELVAAISRAASTNYADSVKGRFTISRDNAKNTVYLQMNSLKPEDTAVYYCNKRLYGYYGRYDYWGQGTQVTVSS”, for which the “polyreactivity (PSR sort gate)” value is recorded as “low polyreactivity”.

For the sequence “QVQLVESGGGLVQAGGSLRLSCAASGRIFSRYAMGWYRQAPGKERELVAGITRSGTTTYYADSVKGRFTISRDNAKNTVYLQMNSLKPEDTAVYYCAAPPIRPNLYDYWGQGTQVTVSS”, the “polyreactivity (PSR sort gate)” value is on record as “high polyreactivity”.

With “QVQLVESGGGLVQAGGSLRLSCAASGRIFSRYAMGWYRQAPVKERELVATITRSGARTYYADSVKGRFTISRDNAKNTVYLQMNSLKPEDTAVYYCATPYKYVTGEDYWGQGTQVTVSS”, the “polyreactivity (PSR sort gate)” value is recorded as “high polyreactivity”.

As to “QVQLVESGGGLVQAGGSLRLSCAASGRIFSRYAMVWYRQAPGKERELVAAINKSGGSTYYADSVKGRFTISRDNAKNTVYLQMNSLKPEDTAVYYCNAVYYWYKGDYWGQGTQVTVSS”, the “polyreactivity (PSR sort gate)” value was “high polyreactivity”.

Take “QVQLVESGGGLVQAGGSLRLSCAASGRIFSRYVMGWYRQAPGKERELVAAISWNGGSTYYADSVKGRFRISRDNAKNTVYLQMNSLKPEDTAVYYCAARVRVTGTYYTKYDYWGQGTQVTVSS”: the “polyreactivity (PSR sort gate)” value is reported as “high polyreactivity”.

With “QVQLVESGGGLVQAGGSLRLSCAASGRIFSRYVRGWYRQAPGKEREFVASITWSGSSTYYADSVKGRFTISRDNAKNTVYLQMNSLKPEDTAVYYCAALGLLSPSPWGTHISEYDSWGQGTQVTVSS”, the “polyreactivity (PSR sort gate)” value is listed as “low polyreactivity”.

With “QVQLVESGGGLVQAGGSLRLSCAASGRIFSSNAMGWYRQAPGKERELVASISSTGSTKYADSVKGRFTISRDKAKNTVYLQMNSLKQEDSAVYYCAAGRYLWHFTFDYWGQGTQVTVSS”, the “polyreactivity (PSR sort gate)” value is listed as “low polyreactivity”.

Turning to “QVQLVESGGGLVQAGGSLRLSCAASGRIFSSNAMGWYRQAPGTERELVASLSSTGSPKYADSVKGRFTISRDNAKNTVYLQMNSLIPEDTAVYYCAATQVRRGPAWGRDYWGQGTQVTVSS”, the “polyreactivity (PSR sort gate)” value was “low polyreactivity”.

As for “QVQLVESGGGLVQAGGSLRLSCAASGRIFSSYAMGWYRKAPGKERELVAAIRRGGGSTSYADSVKGRFTISRDNAKNTVYLQMNSLKPEDTAVYYCAADSPRGQVHYIGGYWGQGTQVTVSS”, the “polyreactivity (PSR sort gate)” value is recorded as “low polyreactivity”.

Turning to “QVQLVESGGGLVQAGGSLRLSCAASGRIFSSYAMGWYRQAPGKERELVARISYSGGSTYYADSVKGRFTISRDNAKNTVYLQMNSLKPEDTAVYYCNARYYGYGAGYRPYDYWGQGTQVTVSS”, the “polyreactivity (PSR sort gate)” value is recorded as “high polyreactivity”.

For “QVQLVESGGGLVQAGGSLRLSCAASGRIFSTNAMGWYLQAPGKERELVAGINSGGSTNYADSVKGRFTISRDNAKNTVYLQMNSLKPEDTAVYYCNASLPVDSWYVQYGVDYDYWGQVTQVTVSS”, the “polyreactivity (PSR sort gate)” value is listed as “low polyreactivity”.

Regarding “QVQLVESGGGLVQAGGSLRLSCAASGRIFSTYAMGWYRQAPGKERELVAAINSIGGRTYYADSVKGRFTISRDNAKNTVYLQMNSMKPEDTAVYYCAASRFRTGQEDDYWGQGTQVTVSS”, the “polyreactivity (PSR sort gate)” value is given as “high polyreactivity”.

“QVQLVESGGGLVQAGGSLRLSCAASGRIFSTYAMVWYREAPGKEMELVAAINKIGGSTYYADSVKGRFTISRDNAKNTVYLQMNSLKPEDTAVYYCAADAPYYPFRRYYYWGQGTQVTVSS”: the “polyreactivity (PSR sort gate)” value is listed as “low polyreactivity”.

With “QVQLVESGGGLVQAGGSLRLSCAASGRIFSTYVMGWYRQAPGKERELVAAIRNNGGSTYYADSVKGRFTISRDNAKNTVYLQMNSLKPEDTAVYFCAKKSFFTGRWWYDYWGQGTQVTVSS”, the “polyreactivity (PSR sort gate)” value was “high polyreactivity”.

Turning to “QVQLVESGGGLVQAGGSLRLSCAASGRIFSTYVMGWYRQAPGKERELVAAITWSGGSTYYADSVKGRFTISRDNEKNTVYLQMNSLKPEDTAVYYCAADEIYGYDYWGQGTQVTVSS”, the “polyreactivity (PSR sort gate)” value was “high polyreactivity”.

For the sequence “QVQLVESGGGLVQAGGSLRLSCAASGRIFSVNAMGWYRQAPGKERELVAAITPGASTNYADSVKGRFTISRDNAKNTVYLQMNSLKPEDTAVYYCAAGWVSFEDWVLGSYYEFDYWGQGTQVTVSS”, the “polyreactivity (PSR sort gate)” value is “low polyreactivity”.

As for “QVQLVESGGGLVQAGGSLRLSCAASGRIFSVYALGWYRQAPGKERELVAAISSGDSTYYADSVKGRFTISRDNAKNTVYLQMNSLKPDDTAVFYCAATFPFHDGDYWGQGTQVTVSS”, the “polyreactivity (PSR sort gate)” value was “low polyreactivity”.

Turning to “QVQLVESGGGLVQAGGSLRLSCAASGRIFSWNAMGWYRQAPGKERELVARITNGGSTYYADSVKGRFTISRDNAKNTVYLQMNSLKPEDTAVYYCAAKYRYYWSSKSKGDYWGQGTQVTVSS”, the “polyreactivity (PSR sort gate)” value was “high polyreactivity”.

In the case of “QVQLVESGGGLVQAGGSLRLSCAASGRIFSYNAMGFYRQAPGKERELVAGITYGSTYYADSVKGRFTISRDNAKNTVYLQMNSLKPEDTAVYYCAADLSYTSVHGYRSDTLMDYWGQGTQVTVSS”, the “polyreactivity (PSR sort gate)” value was “low polyreactivity”.

In the case of “QVQLVESGGGLVQAGGSLRLSCAASGRIFSYNAMGWYRPAPGKERELVASISWSGGRTYYADSVKGRFTISRDNAKNTVYLQMNSLKPEDTAVYYCAVRYRGYGYDWGQGTQVTVSS”, the “polyreactivity (PSR sort gate)” value is listed as “high polyreactivity”.

For the sequence “QVQLVESGGGLVQAGGSLRLSCAASGRIFSYNAMGWYRQAPGKERELVAAISSDGSTYYADSVKGRFTISRDNAKNTVYLQMNSLKPEDTAVYYCNADPGLYDVLYSSGDFDYWGQGTQVTVSS”, the “polyreactivity (PSR sort gate)” value is reported as “low polyreactivity”.

“QVQLVESGGGLVQAGGSLRLSCAASGRIFSYNAMGWYRQAPGKERELVAAISYRGGSTYYADSVKGRFTISRDNAKNTVYLQMNSLNPEDTAVYYCNAEAYYPYGYDYWGQGTQVTVSS”: the “polyreactivity (PSR sort gate)” value is “low polyreactivity”.

“QVQLVESGGGLVQAGGSLRLSCAASGRIFSYNAMGWYRQAPGKERELVAGITSGGRTYYADSVKGRFTISRDNAKNTVYLQMNSLKPEDTAVHYCAASYVPARTRYYYWGQGTQVTVSS”: the “polyreactivity (PSR sort gate)” value is “high polyreactivity”.

In the case of “QVQLVESGGGLVQAGGSLRLSCAASGRIFSYNTMGWYRQAPGKERELVAAISWSGGSTSYADSVKGRFTISRDNAKNTVYLQMNSLKPEDTAVYYCATGSKRNPFYRGNYWGQGTQVTVSS”, the “polyreactivity (PSR sort gate)” value is listed as “low polyreactivity”.

As for “QVQLVESGGGLVQAGGSLRLSCAASGRIFSYTAMGWYRQAPGKERELVAAITRVDNTNYADSVKGRFTISRDNAKNTVYLQMNSLKPEDTAVYYCNARQHQVRWWLREFDYWGQGTQVTVSS”, the “polyreactivity (PSR sort gate)” value is on record as “low polyreactivity”.

On to “QVQLVESGGGLVQAGGSLRLSCAASGRIFSYTARGWSRQAPGKERELVAAISGSTGNTYYADSVKGRFTISRDNAKTTLYLQMNSLKPEDTAVYYCNKLGYKYDYWGQGTQVTVSS”, for which the “polyreactivity (PSR sort gate)” value was “high polyreactivity”.

On to “QVQLVESGGGLVQAGGSLRLSCAASGRIFSYYAMGWYRQAPGKERELVAAITSGGSTYYADSVKGRFTISRDNAKNTVYLQMNSLKPEDTAVYYCNVVSDFRYYYWGQGTQVTVSS”, for which the “polyreactivity (PSR sort gate)” value is “low polyreactivity”.

As to “QVQLVESGGGLVQAGGSLRLSCAASGRIFSYYAMGWYRQAPGKERELVARISWRGGSTYYADSVKGRFTISRDNSKNTVYLQMNSLKPEDSAVYYCAATSPYYRTGYDYWGQGTQVTVSS”, the “polyreactivity (PSR sort gate)” value is on record as “high polyreactivity”.

Consider “QVQLVESGGGLVQAGGSLRLSCAASGRIFSYYAMGWYRQAPGKERELVASISRSGGSTYYANSVKGRFTISRDNAKNTVYLQMNSLKPEDTAVYYCNAEARYTGFAYSYFNSDYWGQGTQVTVSS”, for which the “polyreactivity (PSR sort gate)” value is “low polyreactivity”.

As for “QVQLVESGGGLVQAGGSLRLSCAASGRIFSYYAMGWYRQAPGKERELVATINSGGSTNYADSVKGRFTISRDNAKNTVYLQMNSLKPEDTAVYYCAASPVWWYDYWGQGTQVTVSS”, the “polyreactivity (PSR sort gate)” value was “low polyreactivity”.

For the sequence “QVQLVESGGGLVQAGGSLRLSCAASGRIFSYYAMGWYRQAPGKERELVAVISRRGDNTYYADSVKGRFTISRDNAKNTVYLQMNSLKPEDTAVYYCAAYSWYAKDFDYWGQGTQVTVSS”, the “polyreactivity (PSR sort gate)” value is listed as “high polyreactivity”.

Turning to “QVQLVESGGGLVQAGGSLRLSCAASGRIFSYYAMGWYRQAPRKERELVAAITWSGGSTYYADSVKGRFTISRDNAKNTVYLQMNSLKPEDTAVYYCAADRRRWLYYGYDYWGQGTQVTVSS”, the “polyreactivity (PSR sort gate)” value is “high polyreactivity”.

With “QVQLVESGGGLVQAGGSLRLSCAASGRIFSYYTMGWYRQAPGKERELVAAITGSGGTTYYADSVKGRFTISRDNAKNTVYLQMNSLKPEDTAVYYCAARGYYRWAPYADWRFNYWGQGTQVTVSS”, the “polyreactivity (PSR sort gate)” value is given as “high polyreactivity”.

Turning to “QVQLVESGGGLVQAGGSLRLSCAASGRIFTANVMGWYRQAPGKERELVAAIDYSGGSTYYADSVKGRFTISRDNAKNTVYLQMNSLKPEDTAVYYCNRDDYADYYHLEYDYWGQGTQVTVSS”, the “polyreactivity (PSR sort gate)” value is “low polyreactivity”.

In the case of “QVQLVESGGGLVQAGGSLRLSCAASGRIFTAYAMGWYRQAPGKERELVAAISSGDSTYYADSVKGRFTISRDNAKNTVSLQMNSLKPEDTAVYYCATGVYPDFEYDSWGQGTQVTVSS”, the “polyreactivity (PSR sort gate)” value is given as “low polyreactivity”.

With “QVQLVESGGGLVQAGGSLRLSCAASGRIFTDYTMGWYRQAPGKERELVAAISYSGGSTYYADSVKGRFTISRDNAKNSVYLQMNSLKPEDTAVYYCNRDPQKYRWIPRYDYWGHGTQVTVSS”, the “polyreactivity (PSR sort gate)” value was “low polyreactivity”.

In the case of “QVQLVESGGGLVQAGGSLRLSCAASGRIFTFYAMGWYRQAPGKERELVAAISSGGSTYYADSVKGRFTISRDNAKNTVYLQMHSLKPEDTAVYYCAAEPVWYADYDYWGQGTQVTVSS”, the “polyreactivity (PSR sort gate)” value was “low polyreactivity”.

For “QVQLVESGGGLVQAGGSLRLSCAASGRIFTFYAMGWYRQAPGKERELVAAITSGGSTYYADSVKGRFTISRDNAKNTVYLQMNSLKPEDTAVYYCNALHHTQHDYWGQGTQVTVSS”, the “polyreactivity (PSR sort gate)” value was “low polyreactivity”.

The record behind these values is the nanobody polyreactivity screen of Harvey et al. (2022).
